Reference: patent publication US20180236024A1 (STC UNM, published 2018)

Assays:
[1] = target: T1, NOD2 (full length) (UniProt Q9HC29 1-1040); assay: co-IP, starved HT29 cells and HEK293T cells
T1 construct: also called Flag-NOD2; endogenous NOD2

[2] = target: T2, RIG-I (UniProt O95786 1-925); assay: co-IP with anti-GFP, GFP-IRGM and Flag-Rig-I
T2 construct: also called Flag-Rig-I
T2 sequence (looked up): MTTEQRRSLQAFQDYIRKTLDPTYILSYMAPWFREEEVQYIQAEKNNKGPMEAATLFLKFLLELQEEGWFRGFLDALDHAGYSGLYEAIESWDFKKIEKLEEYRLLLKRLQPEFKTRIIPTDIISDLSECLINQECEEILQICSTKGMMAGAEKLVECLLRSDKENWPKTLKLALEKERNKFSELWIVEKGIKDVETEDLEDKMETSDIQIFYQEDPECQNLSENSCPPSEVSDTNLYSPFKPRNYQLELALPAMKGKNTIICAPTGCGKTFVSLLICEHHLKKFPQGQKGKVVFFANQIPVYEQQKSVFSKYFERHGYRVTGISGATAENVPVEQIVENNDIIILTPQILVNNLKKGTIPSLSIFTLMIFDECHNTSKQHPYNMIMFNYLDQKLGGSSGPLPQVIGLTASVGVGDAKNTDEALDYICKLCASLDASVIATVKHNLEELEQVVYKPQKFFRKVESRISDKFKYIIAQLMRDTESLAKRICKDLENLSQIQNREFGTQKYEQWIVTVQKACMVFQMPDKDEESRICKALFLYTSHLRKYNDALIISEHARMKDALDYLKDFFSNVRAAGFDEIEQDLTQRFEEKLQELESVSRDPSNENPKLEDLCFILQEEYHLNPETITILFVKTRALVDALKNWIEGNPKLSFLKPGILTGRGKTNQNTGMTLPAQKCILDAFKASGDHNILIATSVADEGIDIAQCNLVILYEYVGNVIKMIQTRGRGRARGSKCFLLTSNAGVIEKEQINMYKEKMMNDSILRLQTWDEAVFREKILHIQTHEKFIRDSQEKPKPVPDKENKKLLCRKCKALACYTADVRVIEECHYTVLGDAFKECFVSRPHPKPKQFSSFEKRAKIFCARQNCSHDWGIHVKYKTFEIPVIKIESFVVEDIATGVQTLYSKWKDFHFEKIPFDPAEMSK

[3] = target: T3, Beclin 1 (UniProt Q14457 1-450); assay: co-immunoprecipitation, HEK293T lysates
T3 construct: Flag-tagged overexpressed or endogenous, depending on the experiment; also called Flag-Beclin 1; Flag-Beclin-1
T3 sequence (Q14457 whole entry): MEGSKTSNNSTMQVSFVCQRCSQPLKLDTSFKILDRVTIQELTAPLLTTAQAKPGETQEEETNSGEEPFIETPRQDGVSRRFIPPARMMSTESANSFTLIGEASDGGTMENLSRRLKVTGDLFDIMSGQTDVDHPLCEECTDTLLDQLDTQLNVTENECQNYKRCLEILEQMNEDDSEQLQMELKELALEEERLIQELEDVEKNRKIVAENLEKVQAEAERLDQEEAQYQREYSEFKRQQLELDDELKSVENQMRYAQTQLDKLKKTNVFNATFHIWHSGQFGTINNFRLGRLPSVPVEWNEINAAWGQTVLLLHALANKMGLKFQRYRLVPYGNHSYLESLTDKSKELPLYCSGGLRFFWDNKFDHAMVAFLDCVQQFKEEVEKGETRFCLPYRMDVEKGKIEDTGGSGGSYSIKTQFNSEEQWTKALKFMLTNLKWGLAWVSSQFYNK

[4] = target: T4, TLR4 (UniProt O00206 24-839, limits assumed); assay: co-immunoprecipitation with anti-Flag (Flag-IRGM, tagged TLR4)
T4 construct: also called GFP-TLR4; YFP-TLR4 (Addgene Plasmid 13018)
T4 sequence (O00206 24-839 limits assumed): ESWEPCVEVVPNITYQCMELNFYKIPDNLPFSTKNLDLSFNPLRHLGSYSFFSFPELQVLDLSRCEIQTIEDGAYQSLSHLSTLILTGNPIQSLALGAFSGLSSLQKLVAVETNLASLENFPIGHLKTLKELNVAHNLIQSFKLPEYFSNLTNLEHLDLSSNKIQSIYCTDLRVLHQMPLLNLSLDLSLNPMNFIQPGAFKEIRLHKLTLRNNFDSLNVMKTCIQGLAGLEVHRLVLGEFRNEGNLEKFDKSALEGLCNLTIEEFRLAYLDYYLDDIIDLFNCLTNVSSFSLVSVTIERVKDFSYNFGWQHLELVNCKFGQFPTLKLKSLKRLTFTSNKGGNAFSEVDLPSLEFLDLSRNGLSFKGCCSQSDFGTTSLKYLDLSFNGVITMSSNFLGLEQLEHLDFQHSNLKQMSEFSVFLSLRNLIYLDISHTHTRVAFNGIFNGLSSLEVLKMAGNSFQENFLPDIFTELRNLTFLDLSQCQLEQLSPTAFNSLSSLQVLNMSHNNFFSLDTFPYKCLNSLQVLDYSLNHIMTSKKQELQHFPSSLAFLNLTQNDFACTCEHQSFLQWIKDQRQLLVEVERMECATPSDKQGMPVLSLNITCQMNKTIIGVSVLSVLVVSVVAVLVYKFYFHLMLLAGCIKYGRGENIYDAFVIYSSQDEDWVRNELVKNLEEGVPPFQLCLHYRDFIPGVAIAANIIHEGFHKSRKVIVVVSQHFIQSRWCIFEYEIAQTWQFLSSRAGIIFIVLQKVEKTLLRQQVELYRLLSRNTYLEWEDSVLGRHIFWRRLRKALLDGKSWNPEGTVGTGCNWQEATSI

[5] = target: T5, TLR3 (UniProt O15455 24-904, limits assumed); assay: co-IP with anti-Flag, GFP-IRGM and Flag-TLR3
T5 construct: also called Flag-TLR3 (Addgene Plasmid 13084)
T5 sequence (looked up): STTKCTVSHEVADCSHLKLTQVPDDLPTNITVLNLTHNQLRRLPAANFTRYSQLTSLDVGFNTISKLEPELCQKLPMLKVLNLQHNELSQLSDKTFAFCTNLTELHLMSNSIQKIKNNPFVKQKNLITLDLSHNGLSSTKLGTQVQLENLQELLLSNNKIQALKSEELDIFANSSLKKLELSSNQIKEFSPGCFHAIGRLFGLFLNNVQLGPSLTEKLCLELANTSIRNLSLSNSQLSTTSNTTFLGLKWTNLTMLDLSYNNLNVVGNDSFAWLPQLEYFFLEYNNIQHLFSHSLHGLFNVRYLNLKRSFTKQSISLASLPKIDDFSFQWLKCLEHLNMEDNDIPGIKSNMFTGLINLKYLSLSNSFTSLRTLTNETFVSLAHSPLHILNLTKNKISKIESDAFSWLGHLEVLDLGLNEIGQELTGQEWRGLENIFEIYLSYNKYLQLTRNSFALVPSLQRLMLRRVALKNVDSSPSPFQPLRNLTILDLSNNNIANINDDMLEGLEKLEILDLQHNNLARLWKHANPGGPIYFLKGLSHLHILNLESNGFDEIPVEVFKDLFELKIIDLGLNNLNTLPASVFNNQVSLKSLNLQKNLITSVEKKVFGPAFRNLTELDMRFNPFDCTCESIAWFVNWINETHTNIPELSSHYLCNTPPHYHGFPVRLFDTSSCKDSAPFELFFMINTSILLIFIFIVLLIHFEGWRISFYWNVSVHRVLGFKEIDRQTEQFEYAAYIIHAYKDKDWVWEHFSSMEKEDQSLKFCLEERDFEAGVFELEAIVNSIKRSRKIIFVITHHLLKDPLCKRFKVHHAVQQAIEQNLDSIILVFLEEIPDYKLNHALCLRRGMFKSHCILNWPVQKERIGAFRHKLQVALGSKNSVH

[6] = target: the molecule itself; assay: co-IP of differently tagged IRGM, HEK293T cells

T1 sequence (Q9HC29 whole entry): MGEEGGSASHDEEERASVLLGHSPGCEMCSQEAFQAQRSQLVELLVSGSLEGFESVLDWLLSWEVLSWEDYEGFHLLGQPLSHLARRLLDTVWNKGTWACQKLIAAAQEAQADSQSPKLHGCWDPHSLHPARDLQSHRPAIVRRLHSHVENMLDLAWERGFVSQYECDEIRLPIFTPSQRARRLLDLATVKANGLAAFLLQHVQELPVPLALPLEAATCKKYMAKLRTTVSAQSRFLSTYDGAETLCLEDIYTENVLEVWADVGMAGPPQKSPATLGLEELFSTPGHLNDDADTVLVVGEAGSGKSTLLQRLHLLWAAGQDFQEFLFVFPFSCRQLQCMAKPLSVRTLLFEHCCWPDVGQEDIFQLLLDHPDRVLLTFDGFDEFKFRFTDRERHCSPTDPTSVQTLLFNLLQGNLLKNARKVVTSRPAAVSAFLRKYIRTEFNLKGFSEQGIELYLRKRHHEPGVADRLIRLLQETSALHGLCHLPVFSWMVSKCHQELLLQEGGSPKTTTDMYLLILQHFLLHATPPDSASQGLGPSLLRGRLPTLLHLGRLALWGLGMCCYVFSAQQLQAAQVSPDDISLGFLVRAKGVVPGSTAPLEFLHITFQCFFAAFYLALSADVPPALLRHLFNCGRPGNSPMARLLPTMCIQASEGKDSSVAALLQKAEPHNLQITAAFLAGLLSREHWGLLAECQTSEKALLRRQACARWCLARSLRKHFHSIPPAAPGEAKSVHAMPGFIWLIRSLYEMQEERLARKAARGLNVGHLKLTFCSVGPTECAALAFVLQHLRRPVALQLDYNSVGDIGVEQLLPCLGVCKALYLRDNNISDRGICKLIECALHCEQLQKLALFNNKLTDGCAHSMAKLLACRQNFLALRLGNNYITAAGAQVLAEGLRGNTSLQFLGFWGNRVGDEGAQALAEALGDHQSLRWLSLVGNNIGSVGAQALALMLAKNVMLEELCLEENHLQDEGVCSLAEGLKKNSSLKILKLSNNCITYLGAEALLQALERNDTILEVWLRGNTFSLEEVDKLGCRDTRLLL

B1: IRGM (human IRGM, isoform d) (other, UniProt A1A4Y4-4 1-202, looked up)
chain: MEAMNVEKASADGNLPEVISNIKETLKIVSRTPVNITMAGDSGNGMSTFISALRNTGHEGKASPPTELVKATQRCASYFSSHFSNVVLWDLPGTGSATTTLENYLMEMQFNRYDFIMVASAQFSMNHVMLAKTAEDMGKKFYIVWTKLDMDLSTGALPEVQLLQIRENVLENLQKERLACHEKYLKSTPENSTRPRNINLCS
notes: Stood in cell lysates as GFP-, Flag- or V5-tagged protein or as the endogenous protein, depending on the experiment; Isoform d is said to be used in all experiments; also called GFP-IRGM; GFP-IRGMd
Question: Does B1 bind [1]?
Answer: binds

Question: Does B1 bind [2]?
Answer: binds

Question: Does B1 bind [3]?
Answer: binds

Question: Does B1 bind [4]?
Answer: no binding

Question: Does B1 bind [5]?
Answer: binds

Question: Does B1 bind [6]?
Answer: binds
